# Measured values as given in patent publication US8816055 (DYAX, dated 2014).
# Assays:
# [1] = molecular target: T1, human plasma kallikrein (active form) (human, UniProt P03952 20-390; P03952 391-638); experiment: ELISA, biotinylated pKal / streptavidin background
# T1 construct: two disulfide linked chains; biotinylated in the ELISA; also called pKal; hpKal
# From the text: Abbreviations used: "T/B" is the ELISA signal obtained using of the "target" (biotinylated plasma kallikrein) divided by the ELISA signal of the "background" (streptavidin); both of which were coated on microtiter plates. "nd" is not determined. The symbol "q" refers to the amber suppressible stop codon (TAG), which is translated as glutamine (Q) in strains of E. coli such as the TG1 cells that were used to express the Fab fragments.
# [2] = molecular target: pKal catalytic domain Mutant 4 (human, UniProt P03952 391-638); experiment: Ki,app, enzyme inhibition
# [3] = molecular target: T2, pKal catalytic domain Mutant 1 (human, UniProt P03952 391-638, limits assumed); experiment: Ki,app, enzyme inhibition
# T2 construct: catalytic domain with His tag from Pichia pastoris
# [4] = molecular target: T3, pKal catalytic domain Mutant 2 (human, UniProt P03952 391-638, limits assumed); experiment: Ki,app, enzyme inhibition
# T3 construct: catalytic domain with His tag from Pichia pastoris
# T3 sequence (P03952 other isoform, or with tags, fused parts or gaps mutant limits assumed): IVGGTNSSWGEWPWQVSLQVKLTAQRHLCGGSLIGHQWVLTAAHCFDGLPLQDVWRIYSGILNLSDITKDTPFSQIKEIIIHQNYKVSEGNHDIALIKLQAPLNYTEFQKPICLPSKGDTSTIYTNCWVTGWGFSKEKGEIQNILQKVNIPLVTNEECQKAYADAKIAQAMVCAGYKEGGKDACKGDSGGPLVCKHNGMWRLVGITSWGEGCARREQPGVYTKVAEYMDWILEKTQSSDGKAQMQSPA
# pKal catalytic domain Mutant 4, sequence (P03952 other isoform, or with tags, fused parts or gaps mutant): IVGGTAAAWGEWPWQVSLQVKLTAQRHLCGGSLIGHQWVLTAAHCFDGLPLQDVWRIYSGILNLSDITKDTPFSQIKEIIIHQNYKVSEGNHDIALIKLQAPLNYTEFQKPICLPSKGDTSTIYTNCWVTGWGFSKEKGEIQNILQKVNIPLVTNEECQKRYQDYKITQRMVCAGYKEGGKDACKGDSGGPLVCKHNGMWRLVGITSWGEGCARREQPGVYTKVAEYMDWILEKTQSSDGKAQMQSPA
# T2 sequence (P03952 other isoform, or with tags, fused parts or gaps mutant limits assumed): as the sequence (P03952 other isoform, or with tags, fused parts or gaps mutant) above, with A6N, A7S, A8S, S88A, N91A, S135A, K136A counted along it
# T1 sequence (P03952 20-390, chain 1 of 2): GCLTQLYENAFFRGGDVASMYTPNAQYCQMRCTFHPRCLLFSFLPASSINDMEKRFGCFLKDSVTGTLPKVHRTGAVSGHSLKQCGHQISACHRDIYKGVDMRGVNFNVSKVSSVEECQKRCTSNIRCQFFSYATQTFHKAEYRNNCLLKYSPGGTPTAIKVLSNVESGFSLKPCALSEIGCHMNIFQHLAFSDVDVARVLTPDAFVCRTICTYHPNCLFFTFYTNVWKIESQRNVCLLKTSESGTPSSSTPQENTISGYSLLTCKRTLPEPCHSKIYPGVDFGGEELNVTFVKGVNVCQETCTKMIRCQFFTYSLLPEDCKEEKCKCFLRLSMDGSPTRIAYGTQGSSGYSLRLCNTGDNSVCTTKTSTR
# T1 sequence (P03952 391-638, chain 2 of 2): as the sequence (P03952 other isoform, or with tags, fused parts or gaps mutant) above, with A6N, A7S, A8S counted along it
Binder,ELISA (T/B) [1] [T/B],Ki [2] [nM],Ki [3] [nM],Ki [4] [nM]
"M28-D02 (Fab, V domains shown) VH: EVQLLESGGGLVQPGGSLRLSCAASGFTFSWYPMQWVRQAPGKGLEWVSYIYPSGGGTDYADSVKGRFTISRDNSKNTLYLQMNSLRAEDTATYYCATSSGWLGDAFDIWGQGTMVTVSS VL: DIQMTQSPSSLSASEGDMVTITCRTSRRIGTYLNWYQQKPGKAPKLLIYGASSLQSGVPSRFSGSGSGTDFTLTVSSLQPEDVGTYYCQQSFSSPWTFGPGTKVEIK",3.7,,,
"X101-A01 (antibody, V domains shown, also called 559A-X0101-A01) VH: EVQLLESGGGLVQPGGSLRLSCAASGFTFSHYLMTWVRQAPGKGLEWVSYISPSGGHTIYADSVKGRFTISRDNSKNTLYLQMNSLRAEDTAVYYCARVARGIAARSRTSYFDYWGQGTLVTVSS VL: EIVLTQSPGTLSLSPGERATLSCRTSQFVNSNYLAWYQQKPGQAPRLLIYGASSRATGIPDRFSGSGSGTDFTLTISRLEPEDFAVYYCQQSSRTPWTFGQGTKVEIK",,0.25,14,20
"X115-B07 (antibody, V domains shown, also called 559A-X115-B07; 559A-X0115-B07) VH: EVQLLESGGGLVQPGGSLRLSCAASGFTFSHYLMTWVRQAPGKGLEWVSYISPSGGHTIYADSVKGRFTISRDNSKNTLYLQMNSLRAEDTAVYYCAMVGQGIRGRSRTSYFAQWGQGTLVTVSS VL: EIVLTQSPGTLSLSPGERATLSCRTSQFVNSNYLAWYQQKPGQAPRLLIYGASSRATGIPDRFSGSGSGTDFTLTISRLEPEDFAVYYCQQSSRTPWTFGQGTKVEIK",,0.14,4.7,47
"X115-F02 (Fab, V domains shown, also called 559A-X115-F02; 559A-X0115-F02) VH: EVQLLESGGGLVQPGGSLRLSCAASGFTFSHYIMMWVRQAPGKGLEWVSGIYSSGGITVYADSVKGRFTISRDNSKNTLYLQMNSLRAEDTAVYYCAYRRIGVPRRDEFDIWGQGTMVTVSS VL: DIQMTQSPSTLSASVGDRVTITCRASQSISSWLAWYQQKPGKAPKLLIYKASTLESGVPSRFSGSGSGTEFTLTISSLQPDDFATYYCQQYNTYWTFGQGTKVEIK",,0.1,0.14,5.9
"X115-A03 (antibody, V domains shown, also called 559A-X115-A03; 559A-X0115-A03) VH: EVQLLESGGGLVQPGGSLRLSCAASGFTFSHYIMMWVRQAPGKGLEWVSGIYSSGGITVYADSVKGRFTISRDNSKNTLYLQMNSLRAEDTAVYYCAWRRIGVPRRDSFDMWGQGTMVTVSS VL: DIQMTQSPSTLSASVGDRVTITCRASQSISSWLAWYQQKPGKAPKLLIYKASTLESGVPSRFSGSGSGTEFTLTISSLQPDDFATYYCQQYNTYWTFGQGTKVEIK",,0.13,0.23,3.7
"X115-D01 (antibody, V domains shown, also called 559A-X115-D01; 559A-X0115-D01) VH: EVQLLESGGGLVQPGGSLRLSCAASGFTFSIYSMHWVRQAPGKGLEWVSSIYPSRGMTWYADSVKGRFTISRDNSKNTLYLQMNSLRAEDTAVYYCAYRRTGIPRRDAFDIWGQGTMVTVSS VL: DIQMTQSPSTLSASVGDRVTITCRASQSISSWLAWYQQKPGKAPKLLIYKASTLESGVPSRFSGSGSGTEFTLTISSLQPDDFATYYCQQYNTYWTFGQGTKVEIK",,0.12,0.26,2.5
"X115-G04 (antibody, V domains shown, also called 559A-X115-G04; 559A-X0115-G04) VH: EVQLLESGGGLVQPGGSLRLSCAASGFTFSHYIMMWVRQAPGKGLEWVSGIYSSGGITVYADSVKGRFTISRDNSKNTLYLQMNSLRAEDTAVYYCAYRRTGVPRRDEFDIWGQGTMVTVSS VL: DIQMTQSPSTLSASVGDRVTITCRASQSISSWLAWYQQKPGKAPKLLIYKASTLESGVPSRFSGSGSGTEFTLTISSLQPDDFATYYCQQYNTYWTFGQGTKVEIK",,0.3,0.4,2.2
"M29-D09 (Fab, V domains shown, also called 559A-M29-D09 (sFab); 559A-M0029-D09) VH: EVQLLESGGGLVQPGGSLRLSCAASGFTFSWYTMVWVRQAPGKGLEWVSYIYPSGGATFYADSVKGRFTISRDNSKNTLYLQMNSLRAEDTAVYYCAMGSYDYIWGFYSDHWGQGTLVTVSS VL: QSALTQPPTVSVSPGQTARITCSGNKLGDKYVAWYQQKPGQSPMLVIYQDTKRPSRVSERFSGSNSANTATLSISGTQALDEADYYCQAWDSSIVIFGGGTRLTVL",,0.39,0.27,0.34
"M145-D11 (Fab, V domains shown, also called 559A-M145-D11 (sFab); 559A-M0145-D11) VH: EVQLLESGGGLVQPGGSLRLSCAASGFTFSHYRMSWVRQAPGKGLEWVSSIYPSGGRTVYADSVKGRFTISRDNSKNTLYLQMNSLRAEDTAVYYCAKDKFEWRLLFRGIGNDAFDIWGQGTMVTVSS VL: QSVLTQPPSVSVSPGQTASITCSGDKLGDKYTSWYQQRPGQSPVLVIYQDIKRPSGIPERFSGSNSGNTATLTISGTQAMDEADYYCQAWDSPNARVFGSGTKVTVL",,0.21,0.23,0.1
"M6-D09 (Fab, V domains shown, also called M06-D09; 559A-M06-D09) VH: EVQLLESGGGLVQPGGSLRLSCAASGFTFSFYYMVWVRQAPGKGLEWVSVIYPSGGITVYADSVKGRFTISRDNSKNTLYLQMNSLRAEDTAVYYCARDKWAVMPPYYYYAMDVWGQGTTVTVSS VL: DIQMTQSPSSLSASVGDRVTITCRASQSIRNYLNWYQQKPGKAPNLLIYAASTLQSGVPARFSGSGSGTDFTLTISSLQPEDFATYYCQQLSGYPHTFGQGTKLEIK",,2.9,3.4,13.5
"M35-G04 (Fab, V domains shown, also called 559A-M35-G04; 559A-M0035-G04) VH: EVQLLESGGGLVQPGGSLRLSCAASGFTFSYYHMSWVRQAPGKGLEWVSVISPSGGSTKYADSVKGRFTISRDNSKNTLYLQMNSLRAEDTAVYYCARGGSSDYAWGSYRRPYYFDYWGQGTLVTVSS VL: DIQMTQSPATLSLSPGERATLSCRASQSVSSYLAWYQQKPGQAPRLLIYDASNRATGIPARFSGSGSGTDFTLTISSLEPEDFAVYYCQQRSNWPRGFTFGPGTKVDIK",,0.8,0.09,1.1
